One may read the stoichiometry N as a count of units in the complex or per binding partner.

Results on one molecule are retold here after paper PMC5913291.

This experiment deals with T1, Interferon regulatory factor 3 (IRF-3) (human (endogenous in HEK293T)), Q14653.
T1 chain: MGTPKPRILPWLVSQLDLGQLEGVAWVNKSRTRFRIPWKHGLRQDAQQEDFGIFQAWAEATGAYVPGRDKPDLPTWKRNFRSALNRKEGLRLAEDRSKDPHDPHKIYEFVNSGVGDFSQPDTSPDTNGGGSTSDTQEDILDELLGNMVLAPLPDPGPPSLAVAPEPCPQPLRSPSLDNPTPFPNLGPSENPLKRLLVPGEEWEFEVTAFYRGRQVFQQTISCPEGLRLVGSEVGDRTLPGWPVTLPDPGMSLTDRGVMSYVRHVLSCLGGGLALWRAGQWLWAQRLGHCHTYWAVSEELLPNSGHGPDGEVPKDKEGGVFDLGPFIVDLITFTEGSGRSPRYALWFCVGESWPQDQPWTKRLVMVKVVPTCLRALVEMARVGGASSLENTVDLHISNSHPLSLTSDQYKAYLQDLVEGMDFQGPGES
As to the kind of experiment: native gel or EMSA; lysates of HEK293T cells transfected with HCV 3'-UTR RNA, left untreated or treated with 2.5 mM cFP, 12 h post-transfection; native PAGE and immunoblot for IRF-3 dimers. The following applies: remark: other sources report otherwise. (A gel shift assay detects complexes by their altered migration in electrophoresis.)

B1: Interferon regulatory factor 3 (IRF-3), Q14653 1-427 (natural protein)
chain: T1 chain
Regarding B1, the stoichiometry N came to 2.
